According to paper PMC2708935:
Several values for one entry are separate records, joined by “and”; a condition that tells them apart may be missing. Identical values can stand only once. Like-named read-outs stand apart in the source and are kept apart here.

Tests used:
RAP domain 2 (D2) [1] = biological target: RAP domain 2 (D2) (UniProt P30533); experiment: other fluorescence titration
RAP domain 1 (D1) [2] = experiment: other fluorescence titration
RAP domain 3 (D3) [3] = experiment: other fluorescence titration
[4] = biological target: receptor-associated protein (RAP), GST-free (UniProt P30533); experiment: ITC
[5] = biological target: receptor-associated protein (RAP), GST-free (UniProt P30533); experiment: native gel or EMSA
[6] = biological target: receptor-associated protein (RAP), GST-free (UniProt P30533); experiment: SEC
RAP domain 2 (D2) [7] = biological target: RAP domain 2 (D2) (UniProt P30533); experiment: other fluorescence titration; remark: listed apart in the source
RAP domain 1 (D1) [8] = experiment: other fluorescence titration; remark: listed apart in the source
[9] = biological target: receptor-associated protein (RAP), GST-free (UniProt P30533); experiment: other fluorescence titration
RAP domain 3 (D3) [10] = experiment: other fluorescence titration; remark: listed apart in the source
[11] = biological target: receptor-associated protein (RAP), GST-free (UniProt P30533); experiment: AUC
[12] = biological target: CR56, LRP fragment containing domains CR5 and CR6 (UniProt Q07954); experiment: ITC
[13] = biological target: CR345, LRP fragment containing domains CR3, CR4 and CR5; experiment: other fluorescence titration
[14] = biological target: CR78, LRP fragment containing domains CR7 and CR8; experiment: other fluorescence titration
[15] = biological target: CR56, LRP fragment containing domains CR5 and CR6 (UniProt Q07954); experiment: other fluorescence titration
[16] = biological target: CR89, LRP fragment containing domains CR8 and CR9; experiment: other fluorescence titration
[17] = biological target: CR34, LRP fragment containing domains CR3 and CR4; experiment: other fluorescence titration
[18] = biological target: CR567, LRP fragment containing domains CR5, CR6 and CR7; experiment: other fluorescence titration
[19] = biological target: CR45, LRP fragment containing domains CR4 and CR5; experiment: other fluorescence titration
[20] = biological target: CR678, LRP fragment containing domains CR6, CR7 and CR8; experiment: other fluorescence titration
[21] = biological target: CR456, LRP fragment containing domains CR4, CR5 and CR6; experiment: other fluorescence titration

RAP domain 3 (D3) (domain or fragment), sequence (P30533 35-357): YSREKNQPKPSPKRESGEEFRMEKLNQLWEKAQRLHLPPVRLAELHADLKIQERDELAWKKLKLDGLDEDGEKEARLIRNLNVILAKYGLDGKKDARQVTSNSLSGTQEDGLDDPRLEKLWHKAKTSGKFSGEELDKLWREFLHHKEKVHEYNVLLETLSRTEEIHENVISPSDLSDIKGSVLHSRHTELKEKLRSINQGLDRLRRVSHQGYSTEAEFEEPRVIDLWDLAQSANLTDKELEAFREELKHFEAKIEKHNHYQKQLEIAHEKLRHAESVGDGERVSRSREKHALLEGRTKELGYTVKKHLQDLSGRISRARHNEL
receptor-associated protein (RAP), GST-free, sequence (P30533 35-357): as above
RAP domain 1 (D1) (domain or fragment), sequence (P30533 35-357): as above
CR456, LRP fragment containing domains CR4, CR5 and CR6 (domain or fragment), sequence (Q07954 20-4544): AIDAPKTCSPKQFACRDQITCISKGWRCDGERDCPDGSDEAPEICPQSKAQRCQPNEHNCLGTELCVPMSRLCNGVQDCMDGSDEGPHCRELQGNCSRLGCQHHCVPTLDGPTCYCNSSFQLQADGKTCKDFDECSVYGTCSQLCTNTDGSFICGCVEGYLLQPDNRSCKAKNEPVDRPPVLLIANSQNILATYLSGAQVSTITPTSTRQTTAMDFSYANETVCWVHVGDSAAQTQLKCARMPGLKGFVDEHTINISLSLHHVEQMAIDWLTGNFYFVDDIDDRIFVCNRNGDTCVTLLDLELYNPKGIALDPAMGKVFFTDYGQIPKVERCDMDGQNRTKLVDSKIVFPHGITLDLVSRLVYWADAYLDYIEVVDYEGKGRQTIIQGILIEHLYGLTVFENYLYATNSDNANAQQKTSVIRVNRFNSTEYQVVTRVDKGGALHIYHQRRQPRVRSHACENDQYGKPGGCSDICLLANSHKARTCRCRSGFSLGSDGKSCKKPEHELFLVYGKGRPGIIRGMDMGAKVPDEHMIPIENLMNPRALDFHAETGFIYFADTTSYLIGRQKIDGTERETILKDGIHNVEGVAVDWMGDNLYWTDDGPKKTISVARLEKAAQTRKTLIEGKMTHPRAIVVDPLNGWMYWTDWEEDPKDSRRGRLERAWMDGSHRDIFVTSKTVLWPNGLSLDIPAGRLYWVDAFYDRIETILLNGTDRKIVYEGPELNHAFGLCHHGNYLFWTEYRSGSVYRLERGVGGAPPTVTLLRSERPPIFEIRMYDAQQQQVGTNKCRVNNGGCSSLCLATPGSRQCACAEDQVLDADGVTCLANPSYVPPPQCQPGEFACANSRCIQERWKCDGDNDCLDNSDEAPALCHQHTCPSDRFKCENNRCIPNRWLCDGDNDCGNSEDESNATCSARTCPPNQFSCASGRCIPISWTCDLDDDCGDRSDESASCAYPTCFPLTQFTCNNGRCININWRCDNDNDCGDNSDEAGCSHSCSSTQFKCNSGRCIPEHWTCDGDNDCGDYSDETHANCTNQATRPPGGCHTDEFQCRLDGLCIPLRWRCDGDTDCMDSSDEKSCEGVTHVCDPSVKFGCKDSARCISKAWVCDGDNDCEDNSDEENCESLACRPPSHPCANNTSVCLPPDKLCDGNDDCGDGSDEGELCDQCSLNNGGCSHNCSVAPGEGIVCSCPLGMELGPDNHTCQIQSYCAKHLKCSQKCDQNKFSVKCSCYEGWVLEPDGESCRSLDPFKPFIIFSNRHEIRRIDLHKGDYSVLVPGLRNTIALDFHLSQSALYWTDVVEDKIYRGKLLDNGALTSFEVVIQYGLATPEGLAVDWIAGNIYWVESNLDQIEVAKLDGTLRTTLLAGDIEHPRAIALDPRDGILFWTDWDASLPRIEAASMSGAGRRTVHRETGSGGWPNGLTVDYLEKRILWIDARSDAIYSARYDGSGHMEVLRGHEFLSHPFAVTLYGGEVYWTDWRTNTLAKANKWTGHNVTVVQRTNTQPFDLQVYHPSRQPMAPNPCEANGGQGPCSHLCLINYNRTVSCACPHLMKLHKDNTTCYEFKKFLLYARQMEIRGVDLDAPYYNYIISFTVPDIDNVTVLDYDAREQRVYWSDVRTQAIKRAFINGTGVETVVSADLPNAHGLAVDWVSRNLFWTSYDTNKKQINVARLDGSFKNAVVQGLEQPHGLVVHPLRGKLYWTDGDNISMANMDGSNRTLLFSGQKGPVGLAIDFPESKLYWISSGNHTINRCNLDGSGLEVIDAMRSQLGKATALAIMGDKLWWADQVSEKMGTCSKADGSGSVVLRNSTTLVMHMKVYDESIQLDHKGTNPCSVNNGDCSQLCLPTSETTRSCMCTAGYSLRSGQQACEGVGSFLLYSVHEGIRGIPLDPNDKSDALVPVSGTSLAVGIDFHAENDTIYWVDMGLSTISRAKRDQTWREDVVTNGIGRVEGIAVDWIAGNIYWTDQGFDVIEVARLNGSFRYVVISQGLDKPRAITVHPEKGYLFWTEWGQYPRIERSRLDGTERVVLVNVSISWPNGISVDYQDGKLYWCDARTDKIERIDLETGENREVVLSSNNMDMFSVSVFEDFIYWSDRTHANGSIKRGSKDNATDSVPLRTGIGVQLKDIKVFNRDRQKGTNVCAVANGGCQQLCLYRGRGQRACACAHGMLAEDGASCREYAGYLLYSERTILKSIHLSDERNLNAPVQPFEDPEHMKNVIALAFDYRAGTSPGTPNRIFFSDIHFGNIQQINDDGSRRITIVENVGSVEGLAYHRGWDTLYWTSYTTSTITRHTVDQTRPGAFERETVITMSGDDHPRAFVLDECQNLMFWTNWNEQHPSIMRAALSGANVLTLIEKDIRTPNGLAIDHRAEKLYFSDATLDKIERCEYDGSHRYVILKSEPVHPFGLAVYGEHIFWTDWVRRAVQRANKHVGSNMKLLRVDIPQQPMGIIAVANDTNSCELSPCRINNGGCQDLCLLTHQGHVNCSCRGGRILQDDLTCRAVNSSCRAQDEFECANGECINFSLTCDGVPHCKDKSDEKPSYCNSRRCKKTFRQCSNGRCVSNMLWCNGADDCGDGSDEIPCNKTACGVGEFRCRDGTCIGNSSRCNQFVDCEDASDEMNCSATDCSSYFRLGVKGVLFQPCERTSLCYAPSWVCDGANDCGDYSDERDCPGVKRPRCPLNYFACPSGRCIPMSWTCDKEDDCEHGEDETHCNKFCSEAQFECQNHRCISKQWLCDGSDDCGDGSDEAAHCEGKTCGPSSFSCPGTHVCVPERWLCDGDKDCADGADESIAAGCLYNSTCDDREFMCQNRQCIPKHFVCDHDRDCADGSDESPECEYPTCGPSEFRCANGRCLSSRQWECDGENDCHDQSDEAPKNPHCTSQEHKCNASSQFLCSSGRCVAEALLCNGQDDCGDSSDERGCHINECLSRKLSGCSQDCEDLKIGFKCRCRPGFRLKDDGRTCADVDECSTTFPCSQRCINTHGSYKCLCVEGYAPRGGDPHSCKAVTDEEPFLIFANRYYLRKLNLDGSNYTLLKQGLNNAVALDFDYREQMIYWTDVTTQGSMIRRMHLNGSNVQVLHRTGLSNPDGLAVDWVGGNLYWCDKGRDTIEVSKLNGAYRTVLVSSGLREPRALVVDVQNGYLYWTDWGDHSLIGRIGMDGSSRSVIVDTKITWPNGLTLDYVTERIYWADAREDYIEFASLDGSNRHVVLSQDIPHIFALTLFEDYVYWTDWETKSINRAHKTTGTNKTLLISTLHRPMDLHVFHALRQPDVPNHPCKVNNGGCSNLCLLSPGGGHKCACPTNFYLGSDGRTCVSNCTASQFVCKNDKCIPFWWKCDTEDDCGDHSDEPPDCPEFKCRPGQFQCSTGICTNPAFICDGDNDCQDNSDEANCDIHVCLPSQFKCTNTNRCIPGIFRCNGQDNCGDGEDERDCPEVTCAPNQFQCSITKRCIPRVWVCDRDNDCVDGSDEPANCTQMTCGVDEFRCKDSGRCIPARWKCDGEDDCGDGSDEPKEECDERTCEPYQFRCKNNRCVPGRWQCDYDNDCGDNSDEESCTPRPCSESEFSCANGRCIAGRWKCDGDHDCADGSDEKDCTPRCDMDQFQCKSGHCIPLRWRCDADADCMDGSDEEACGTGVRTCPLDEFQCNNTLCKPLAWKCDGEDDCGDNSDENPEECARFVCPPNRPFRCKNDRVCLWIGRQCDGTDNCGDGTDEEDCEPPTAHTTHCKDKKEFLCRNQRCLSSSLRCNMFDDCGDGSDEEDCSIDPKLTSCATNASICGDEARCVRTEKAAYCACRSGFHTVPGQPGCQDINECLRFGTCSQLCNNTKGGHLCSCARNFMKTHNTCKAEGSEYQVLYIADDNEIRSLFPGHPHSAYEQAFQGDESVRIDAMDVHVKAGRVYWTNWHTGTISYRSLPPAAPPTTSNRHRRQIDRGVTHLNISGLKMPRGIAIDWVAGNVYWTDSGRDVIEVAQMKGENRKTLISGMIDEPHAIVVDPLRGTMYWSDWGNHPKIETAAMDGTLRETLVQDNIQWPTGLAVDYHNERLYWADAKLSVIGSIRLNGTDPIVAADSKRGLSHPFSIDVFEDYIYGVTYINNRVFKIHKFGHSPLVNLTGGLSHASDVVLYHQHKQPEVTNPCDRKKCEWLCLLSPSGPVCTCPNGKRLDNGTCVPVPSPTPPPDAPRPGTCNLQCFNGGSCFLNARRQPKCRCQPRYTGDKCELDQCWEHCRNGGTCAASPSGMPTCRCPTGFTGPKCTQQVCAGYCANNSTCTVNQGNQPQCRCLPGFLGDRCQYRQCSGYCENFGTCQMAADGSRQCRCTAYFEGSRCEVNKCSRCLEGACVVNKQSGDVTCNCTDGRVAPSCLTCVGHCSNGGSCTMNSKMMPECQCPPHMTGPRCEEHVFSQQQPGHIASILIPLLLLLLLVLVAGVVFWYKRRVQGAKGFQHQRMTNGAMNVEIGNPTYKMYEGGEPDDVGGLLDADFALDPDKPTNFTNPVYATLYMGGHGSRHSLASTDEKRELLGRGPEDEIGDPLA
CR45, LRP fragment containing domains CR4 and CR5, sequence (Q07954 20-4544): as above
CR567, LRP fragment containing domains CR5, CR6 and CR7, sequence (Q07954 20-4544): as above
CR345, LRP fragment containing domains CR3, CR4 and CR5 (domain or fragment), sequence (Q07954 20-4544): as above
CR678, LRP fragment containing domains CR6, CR7 and CR8, sequence (Q07954 20-4544): as above
CR34, LRP fragment containing domains CR3 and CR4, sequence (Q07954 20-4544): as above

Substance | stoichiometry N (equivalents of CR per RAP) [5] | Kd1 (site 1, fixed in the fit) [9] | Kd2 (site 2) [9] | Kd [12] | dH [12] | Kd [13] | Kd [14] | Kd [15] | Kd [16] | Kd [17] | Kd [18] | Kd [19] | Kd [20] | further results
CR56, LRP fragment containing domains CR5 and CR6 (from UniProt Q07954 932-1013) (domain or fragment) | 2 | 20 nM | 56 nM | – | – | – | – | – | – | – | – | – | – | Kd (RAP domain 2 (D2) [1]): 46 nM; Kd (RAP domain 1 (D1) [2]): 26 nM; Kd (RAP domain 3 (D3) [3]): 41 nM; dH (overall, two equivalents of CR56) [4]: -39.2 kcal/mol; stoichiometry N [4]: 2 CR56 per RAP; stoichiometry N [6]: 2.1 CR56 per RAP; Kd (RAP domain 2 (D2) [7]): 22 nM; Kd (RAP domain 1 (D1) [8]): 29 nM; Kd (RAP domain 3 (D3) [10]): 7 nM; stoichiometry N [11]: 2 CR56 per RAP and 2.6 CR56 per RAP
CR345, LRP fragment containing domains CR3, CR4 and CR5 (domain or fragment) | 2 | 20 nM | 42 nM | – | – | – | – | – | – | – | – | – | – | stoichiometry N (CR345 per RAP) [6]: 1.8; stoichiometry N (CR345 per RAP) [11]: 2 and 2.3
CR456, LRP fragment containing domains CR4, CR5 and CR6 (domain or fragment) | 2 | 10 nM | 36 nM | – | – | – | – | – | – | – | – | – | – | –
RAP domain 1 (D1) (domain or fragment) | – | – | – | 62 nM | -18.4 kcal/mol | 23 nM | 927 nM | 20 nM | 35 nM | 38 nM | 15 nM | 24 nM | 859 nM | –
RAP domain 2 (D2) (from UniProt P30533 35-357) (domain or fragment) | – | – | – | 270 nM | -8.8 kcal/mol | 23 nM | 116 nM | 54 nM | 42 nM | 19 nM | 18 nM | 30 nM | 44 nM | –
RAP domain 3 (D3) (domain or fragment) | – | – | – | 77 nM | -17.1 kcal/mol | – | 55 nM | 37 nM | 20 nM | 3.5 nM | 5.3 nM | 17 nM | 26 nM | Kd [21]: 8 nM
